The results in this text go back to paper doi:10.1101/2022.10.03.510161.

The target in assay [1] is P74-26 TTP L229A variant (bacteriophage P74-26). As to the kind of experiment: light scattering of tube assembly.
In assay [2] the target is P74-26 tail tube protein (TTP), gp93, in the tail tube of purified virions (bacteriophage P74-26). Put plainly: cryo-EM structure.
For assay [3], the target named is P74-26 tail tube protein (TTP), gp93, recombinant wild type (bacteriophage P74-26). Put plainly: light scattering of tube assembly.
For assay [4] the target is unchanged. Put plainly: SEC-MALS. (In general: Size exclusion chromatography separates by hydrodynamic size, large species first.)

With “P74-26 TTP L229A variant (natural protein)”, the tube formation rate relative to WT in assay [1] was 10 % of the WT.
Consider “P74-26 tail tube protein (TTP), gp93, in the tail tube of purified virions (natural protein)”, for which the stoichiometry N in assay [2] amounted to 3.
Consider “P74-26 tail tube protein (TTP), gp93, recombinant wild type (natural protein)”, for which, in assay [3], the tube growth rate at 37 °C relative to 20 °C (x the 20°C rate) stood at 68 and the tube growth rate at 50 °C relative to 20 °C (x the 20°C rate) was determined as 3520. For the same substance, in assay [4], the mass fraction of the hexamer peak was 6% and the stoichiometry N is 6.

The term stoichiometry N denotes the number of molecules, sites or subunits per partner or assembly.
